For experiment [1], the target named is T1, ALK (anaplastic lymphoma kinase) receptor, full length, expressed on cells (human, UniProt Q9UM73 19-1620).
T1 construct: U87MG cells carry endogenous human ALK; also called PTNR; PTN receptor
Briefly: saturation binding of 35S-labeled PTN to 32D/ALK cells.

Experiment [2] addresses T1, ALK (anaplastic lymphoma kinase) …. Briefly: saturation binding of 35S-labeled PTN to 32D/ALK cells, non-linear regression. The procedure: For this, ALK-negative mouse hematopoietic cell line 32D was used which grows in suspension culture and expressed the ALK protein in these cells. Also used was ^35S-labeled PTN from metabolic labeling experiments as a ligand for the receptor binding studies. Briefly, cell lysates were then prepared and a total of 3 mg of cellular proteins subjected to immunoprecipitation as described. (Souttou et al., 1997). For uncoupled antibodies, Sepharose-bound protein G (Gammabind plus, Amersham/Pharmacia) was used to precipitate immunocomplexes. Antibodies were anti-phosphotyrosine (agarose-coupled 4G10, 30 µl; UBI, Lake Placid NY), anti-PTNR (a cocktail of antibodies from Santa Cruz Biotechnology, Santa Cruz Calif. and from Accurate Chemicals, Westburg N.Y.), anti-IRS-1 (3 µg of rabbit IgG). Resulting precipitates were analyzed by SDS polyacrylamide gel electrophoresis. Experimental procedures for immunoblots for phosphotyrosine, IRS-1 (anti-IRS-1, Transduction Laboratories, Lexington Ky.), PLC-gamma (anti-PLC-gamma, UBI)and PI3-kinase (UBI) using unlabelled cells as described (Souttou et al., 1997).
Saturation binding of radiolabeled PTN to 32D/ALK (filled symbols) and 32D/control cells (open symbols) (FIG. 2b). Data were pooled from two independent experiments with triplicate repeat measurements of data points. […]

T1 sequence (Q9UM73 other isoform, or with tags, fused parts or gaps limits assumed): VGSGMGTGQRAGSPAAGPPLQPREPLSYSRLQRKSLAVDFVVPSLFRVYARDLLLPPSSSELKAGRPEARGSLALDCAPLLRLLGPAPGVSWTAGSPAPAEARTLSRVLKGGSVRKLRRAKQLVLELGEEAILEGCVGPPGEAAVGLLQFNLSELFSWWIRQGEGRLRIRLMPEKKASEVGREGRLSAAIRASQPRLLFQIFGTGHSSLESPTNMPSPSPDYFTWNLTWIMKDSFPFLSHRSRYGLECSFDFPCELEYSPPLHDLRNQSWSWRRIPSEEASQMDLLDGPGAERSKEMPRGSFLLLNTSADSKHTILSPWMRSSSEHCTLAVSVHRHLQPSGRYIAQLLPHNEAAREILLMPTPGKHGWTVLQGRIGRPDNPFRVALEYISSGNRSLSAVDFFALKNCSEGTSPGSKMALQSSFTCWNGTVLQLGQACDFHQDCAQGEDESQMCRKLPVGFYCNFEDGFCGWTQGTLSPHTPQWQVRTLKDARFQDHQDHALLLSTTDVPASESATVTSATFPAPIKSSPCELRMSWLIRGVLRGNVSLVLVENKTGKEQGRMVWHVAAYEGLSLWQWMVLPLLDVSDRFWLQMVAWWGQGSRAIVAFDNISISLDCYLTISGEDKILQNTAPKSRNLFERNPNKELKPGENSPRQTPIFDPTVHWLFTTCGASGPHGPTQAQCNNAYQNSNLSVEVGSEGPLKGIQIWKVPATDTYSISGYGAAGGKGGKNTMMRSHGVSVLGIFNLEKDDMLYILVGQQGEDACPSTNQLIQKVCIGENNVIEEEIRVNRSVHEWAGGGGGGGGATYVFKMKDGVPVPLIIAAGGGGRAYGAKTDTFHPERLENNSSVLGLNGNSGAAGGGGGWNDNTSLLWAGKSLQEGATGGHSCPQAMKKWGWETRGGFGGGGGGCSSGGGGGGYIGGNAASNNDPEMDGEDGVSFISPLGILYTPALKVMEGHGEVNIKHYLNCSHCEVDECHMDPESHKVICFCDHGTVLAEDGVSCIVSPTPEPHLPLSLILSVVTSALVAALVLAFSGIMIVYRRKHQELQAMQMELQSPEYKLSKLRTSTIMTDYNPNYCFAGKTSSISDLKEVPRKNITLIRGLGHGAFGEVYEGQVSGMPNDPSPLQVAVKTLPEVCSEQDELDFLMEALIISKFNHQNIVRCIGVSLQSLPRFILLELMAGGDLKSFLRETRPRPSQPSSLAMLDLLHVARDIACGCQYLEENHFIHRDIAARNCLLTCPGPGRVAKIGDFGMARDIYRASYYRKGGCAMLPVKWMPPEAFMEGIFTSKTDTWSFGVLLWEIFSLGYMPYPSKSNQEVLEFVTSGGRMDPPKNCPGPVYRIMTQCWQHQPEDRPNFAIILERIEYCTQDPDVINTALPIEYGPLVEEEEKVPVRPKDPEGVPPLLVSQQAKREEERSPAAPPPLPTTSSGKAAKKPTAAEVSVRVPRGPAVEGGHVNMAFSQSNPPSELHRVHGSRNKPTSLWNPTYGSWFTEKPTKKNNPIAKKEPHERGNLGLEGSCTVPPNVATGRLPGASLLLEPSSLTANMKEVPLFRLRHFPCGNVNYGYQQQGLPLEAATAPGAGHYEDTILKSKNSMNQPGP

B1: pleiotrophin (PTN), purified from the culture supernatant of cells transfected with the human PTN cDNA (ligand, UniProt P21246 33-168, looked up)
chain: GKKEKPEKKVKKSDCGEWQWSVCVPTSGDCGLGTREGTRTGAECKQTMKTQRCKIPCNWKKQFGAECKYQFQAWGECDLNTALKTRTGSLKRALHNAECQKTVTISKPCGKLTKPKPQAESKKKKKEGKKQEKMLD
notes: also called PTN ligand; radiolabeled PTN
As usually defined, the Kd is a measure of binding affinity in units of concentration. High values mean lower affinity, low ones higher affinity. On to B1, for which the results for the Kd in experiment [1] and in experiment [2] were 30 to 40 pM and 32 pM, respectively.
